Columns and labels:
Experiment in all cases: TF binding assay; method not stated in the example
[1] = target: T1, Factor VII preparation 1 (recombinant human FVII produced serum-free in CHO clone E11, Example 3) (human, UniProt P08709 61-466, N-linked oligosaccharide chains (Factor VII is normally glycosylated at Asn 145 and Asn 322); 98% of chains contain sialic acid, 6% contain fucosylated antenna)
T1 construct: The preparations differ only in glycoform pattern
T1 sequence (looked up): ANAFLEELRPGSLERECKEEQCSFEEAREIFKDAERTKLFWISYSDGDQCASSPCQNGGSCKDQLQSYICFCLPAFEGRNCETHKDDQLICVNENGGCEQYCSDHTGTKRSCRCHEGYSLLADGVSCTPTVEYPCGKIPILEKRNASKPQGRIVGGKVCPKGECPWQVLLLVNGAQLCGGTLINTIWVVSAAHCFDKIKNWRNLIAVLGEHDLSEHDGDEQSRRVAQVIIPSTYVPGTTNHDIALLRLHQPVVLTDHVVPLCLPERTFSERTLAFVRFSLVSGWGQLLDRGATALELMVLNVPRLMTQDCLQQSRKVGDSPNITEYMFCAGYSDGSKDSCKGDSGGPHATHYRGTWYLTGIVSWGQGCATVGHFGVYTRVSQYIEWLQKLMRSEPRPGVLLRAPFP

[2] = target: T2, Factor VII preparation 2 (recombinant human FVII produced serum-free in CHO clone E11, Example 3) (human, UniProt P08709 61-466, N-linked oligosaccharide chains (Factor VII is normally glycosylated at Asn 145 and Asn 322); 94% of chains contain sialic acid, 13% contain fucosylated antenna)
T2 construct: The preparations differ only in glycoform pattern
T2 sequence (looked up): T1 sequence (looked up)

[3] = target: T3, Factor VII preparation 5 (recombinant human FVII produced serum-free in CHO clone E11, Example 3) (human, UniProt P08709 61-466, N-linked oligosaccharide chains (Factor VII is normally glycosylated at Asn 145 and Asn 322); 86% of chains contain sialic acid, 21% contain fucosylated antenna)
T3 construct: The preparations differ only in glycoform pattern
T3 sequence (looked up): T1 sequence (looked up)

Kd [1]: 2.8 nM | Kd [2]: 2 nM | Kd [3]: 2.8 nM
B1: tissue factor (TF) (receptor, UniProt P13726 33-251, looked up)
chain: SGTTNTVAAYNLTWKSTNFKTILEWEPKPVNQVYTVQISTKSGDWKSKCFYTTDTECDLTDEIVKDVKQTYLARVFSYPAGNVESTGSAGEPLYENSPEFTPYLETNLGQPTIQSFEQVGTKVNVTVEDERTLVRRNNTFLSLRDVFGKDLIYTLYYWKSSSSGKKTAKTNTNEFLIDVDKGENYCFSVQAVIPSRTVNRKSTDSPVECMGQEKGEFRE

— patent US20020151471A1 (published 2002)
